Source: publication PMC3047612 (The Journal of General Physiology, 2011)

Target: H6 hERG 666–872 Flag (human, UniProt Q12809 666-872)
Experiment: pull-down

Chain of H6 hERG 666–872 Flag (Q12809 666-872): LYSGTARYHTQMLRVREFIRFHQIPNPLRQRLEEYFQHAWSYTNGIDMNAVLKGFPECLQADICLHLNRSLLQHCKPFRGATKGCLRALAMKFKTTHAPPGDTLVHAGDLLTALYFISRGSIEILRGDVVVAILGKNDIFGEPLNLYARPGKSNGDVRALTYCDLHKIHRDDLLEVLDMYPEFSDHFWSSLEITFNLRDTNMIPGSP

B1: GST N1–135 (domain or fragment, human, UniProt Q12809 1-135, looked up)
chain: MPVRRGHVAPQNTFLDTIIRKFEGQSRKFIIANARVENCAVIYCNDGFCELCGYSRAEVMQRPCTCDFLHGPRTQRRAAAQIAQALLGAEERKVEIAFYRKDGSCFLCLVDVVPVKNEDGAVIMFILNFEVVMEK
B1: binds.
